Laboratory results: patent US20110059078A1 (AstraZeneca / MedImmune, published 2011)

T1: human interferon alpha receptor 1 (IFNAR1), on cells (human, UniProt P17181 28-557)
T1 sequence (looked up): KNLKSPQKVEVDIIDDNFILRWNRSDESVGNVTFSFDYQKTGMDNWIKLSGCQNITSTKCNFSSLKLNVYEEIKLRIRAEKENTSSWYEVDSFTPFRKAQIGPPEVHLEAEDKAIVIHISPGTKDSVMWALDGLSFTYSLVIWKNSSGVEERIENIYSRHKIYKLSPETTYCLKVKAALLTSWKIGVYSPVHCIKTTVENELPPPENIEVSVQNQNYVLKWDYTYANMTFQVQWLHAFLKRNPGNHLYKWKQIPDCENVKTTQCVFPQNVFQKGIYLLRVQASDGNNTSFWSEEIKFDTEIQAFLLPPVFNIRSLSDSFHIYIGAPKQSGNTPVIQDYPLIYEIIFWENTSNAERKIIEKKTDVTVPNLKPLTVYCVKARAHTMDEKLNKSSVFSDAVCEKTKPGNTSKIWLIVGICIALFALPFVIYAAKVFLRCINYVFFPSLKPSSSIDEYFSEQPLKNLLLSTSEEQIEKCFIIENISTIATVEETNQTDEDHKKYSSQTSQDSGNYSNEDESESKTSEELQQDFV

T2: ovalbumin (UniProt P01012 2-386)
T2 construct: Control protein; also called soluble ovalbumin
T2 sequence (looked up): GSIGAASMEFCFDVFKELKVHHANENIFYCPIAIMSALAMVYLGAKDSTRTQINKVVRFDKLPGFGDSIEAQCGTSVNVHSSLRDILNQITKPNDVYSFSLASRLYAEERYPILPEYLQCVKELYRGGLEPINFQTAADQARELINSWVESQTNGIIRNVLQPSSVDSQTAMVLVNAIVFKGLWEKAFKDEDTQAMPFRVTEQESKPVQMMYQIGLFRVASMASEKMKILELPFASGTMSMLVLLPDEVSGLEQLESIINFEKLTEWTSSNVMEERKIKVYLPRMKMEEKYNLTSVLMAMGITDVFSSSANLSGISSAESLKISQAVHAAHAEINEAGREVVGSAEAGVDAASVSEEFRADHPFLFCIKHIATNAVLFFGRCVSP


Columns and labels:
[1] = target: human interferon alpha receptor 1 (IFNAR1), on cells (human) (UniProt P17181); assay: cell-based or functional assay
[2] = target: T1, human interferon alpha receptor 1 …; assay: cell-based or functional assay
[3] = target: T1, human interferon alpha receptor 1 …; assay: cell-based or functional assay; remark: listed apart in the source
ovalbumin [4] = target: T2, ovalbumin; assay: BIAcore, ovalbumin control, antibody at 333 nM, reference-subtracted
Experimental: All experiments were performed on a BIAcore 3000 instrument (BIAcore, Inc., Uppsala, Sweden). […] Separately, a blank surface was also prepared on each chip using the identical protocol, minus the protein. This blank surface was used as a reference cell throughout the experiment, and served to correct for both non-specific binding and certain housekeeping artifacts.

[5] = target: T1, human interferon alpha receptor 1 …; assay: europium-labelled antibody binding to HEK 293F cells, Kd from binding curves (GraphPad Prism)
Experimental: Methods: 200,000 HEK 293F cells were seeded in a round bottom, 96-well plate using 50 μL RPMI 1640 media supplemented with 10% FBS. […] 25 μL of europium conjugated, serially diluted antibody was then added to appropriate wells and cells and antibodies were agitated gently at room temperature for 1-2 hours. After binding incubation, 150 μL of cell media was added to all wells and plates were spun at 1200 rpm for 5 minutes at room temperature. Plates were quickly decanted and 250 μL cell media was added to all wells. Spins and washes were repeated for a total of 3 washes. Cells were then resuspended in 100 μL cell media. 50 μL of resuspended cells were transferred to 200 μL of DELPHIA enhancement solution (PerkinElmer) in a DELPHIA yellow microtiter plate and Europium emission was measured on a Victor2 Multilabel reader (PerkinElmer). Signal was measured in cps and Kd values and Bₘₐₓ values were generated using GraphPad Prism 4 analysis software.

[6] = target: T3, FcγRIIIA variant 158V (high affinity) with Flag tag (UniProt P08637 17-208); assay: ELISA, antibody coated on the plate at 50 µg/ml, Flag-tagged FcγRIIIA titrated, biotin anti-Flag and avidin-HRP
T3 construct: also called FcγRIIIA-10 158V; not shown: Flag tag
T3 sequence (P08637 other isoform, or with tags, fused parts or gaps mutant): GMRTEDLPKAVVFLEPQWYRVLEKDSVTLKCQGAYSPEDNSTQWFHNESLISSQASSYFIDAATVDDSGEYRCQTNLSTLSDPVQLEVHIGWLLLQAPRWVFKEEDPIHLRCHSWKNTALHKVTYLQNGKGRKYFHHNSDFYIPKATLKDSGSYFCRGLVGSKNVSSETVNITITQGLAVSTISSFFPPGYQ
Experimental: (§1) The plate was washed one hour later and incubated with biotin conjugated anti Flag antibody (Sigma) at 2 μg/ml. After washing 25 μl of HRP conjugated Avidin was added to each well. The unbound materials were removed by washing one hour after incubation. The binding signal was detected with the substrate TMB.

[7] = target: T4, FcγRIIIA variant 158F (low affinity) with Flag tag (UniProt P08637 17-208, limits assumed); assay: as above
T4 construct: not shown: Flag tag
T4 sequence (P08637 17-208 limits assumed, change not shown): as the sequence (P08637 other isoform, or with tags, fused parts or gaps mutant) above, with V160F counted along it
Experimental: as §1

ovalbumin [8] = target: T2, ovalbumin; assay: BIAcore, control surface, FcγRI injected at 20 nM, reference-subtracted
Experimental: Methods: All experiments were performed on a BIAcore 3000 instrument (BIAcore, Inc., Uppsala, Sweden). In a typical experiment 1 μM solutions of 9D4 IgGs were used to immobilize anywhere from ˜7000 RUs−˜11,000 RUs of protein onto CM5 sensor chip surfaces using a standard amino coupling protocol (BIAcore, Inc.). Separately, a blank surface was also prepared on each chip using the identical protocol, minus the protein. This blank surface was used as a reference cell throughout the experiment, and served to correct for both non-specific binding and certain housekeeping artifacts.

[9] = target: T1, human interferon alpha receptor 1 …; assay: IHC of human monocytes with biotinylated antibody
Experimental: Human Monocytes: A cell suspension was smeared/spotted directly onto slides. The slides were allowed to dry overnight and then soaked in Acetone for 10 min and allowed to air dry. Prior to use, slides were dipped into 10% neutral buffered formalin for 10 secs and washed 3× in buffer (1×TBS with 0.01% Tween20).
Slide staining: After washing in buffer, slides were treated to quench endogenous peroxidases by treatment with a solution of Glucose Oxidase (1 U/ml, Sigma G0543), B-D(+) Glucose (10 mM, Sigma G5250), Sodium Azide (1 mM, Sigma, S8032) for 1 hour at room temperature. Slides were then rinsed in wash buffer (1×TBS with 0.01% Tween 20). Slides were placed in a protein block solution (1×PBS pH7.2, 0.5% casein(N-Z amine, Sigma CO626), 1% BSA (Sigma A7906), 1.5% Normal Goat serum (Jackson Labs #005-000-001) for 30 min at room temperature. Biotinylated antibody (see above) was applied to the slides by dilution into the protein block solution. Incubation of the slides with the biotinylated antibody was performed at room temperature for 2 hours. Slides were rinsed 3× in wash buffer (1×TBS, 0.01% Tween 20). Antibody detection was performed using a Vectastain Kit (Vector Laboratories). Slides were washed and counterstained with hematoxylin. Slides were dehydrated and mounted with coverslips prior to viewing.

Molecule | IC50, HiL3 ISRE-luciferase reporter assay, neutralization of Human Leukocyte IFN [2] [µg/mL] | IC50, HiL3 ISRE-luciferase reporter assay, neutralization of IFNα 2b [2] [µg/mL] | IC50, HiL3 ISRE-luciferase reporter assay, neutralization of IFNα10 [2] [µg/mL] | IC50, HiL3 ISRE-luciferase reporter assay, neutralization of IFNβ [2] [µg/mL] | IC50, HiL3 ISRE-luciferase reporter assay, neutralization of IFNω [2] [µg/mL] | IC50, luciferase reporter assay, Leukocyte IFN signaling [2] [nM] | IC50, suppression of CD38 expression on cells stimulated with leukocyte-IFN [2] [µg/mL] | IC50, suppression of CD86 expression on cells stimulated with leukocyte-IFN [2] [µg/mL] | IC50, suppression of CD123 expression on cells stimulated with leukocyte-IFN [2] [µg/mL] | binding result (ovalbumin [4]) | Kd [5] [nM] | also measured
anti-IFNAR1 antibody MDX-1333 |  |  |  |  |  |  |  |  |  |  |  | IC50, HiL3 ISRE-luciferase reporter assay, neutralization of Human Leukocyte IFN [1]: 1.12 µg/mL; IC50, HiL3 ISRE-luciferase reporter assay, neutralization of IFNα 2b [1]: 0.000646 µg/mL; IC50, HiL3 ISRE-luciferase reporter assay, neutralization of IFNα10 [1]: 0.0988 µg/mL; IC50, HiL3 ISRE-luciferase reporter assay, neutralization of IFNβ [1]: 19 µg/mL; IC50, HiL3 ISRE-luciferase reporter assay, neutralization of IFNω [1]: 5.32 µg/mL; IC50, luciferase reporter assay, Leukocyte IFN signaling [1]: 0.04 nM
modified anti-IFNAR1 antibody 9D4-TM (Triple Mutant) (antibody, Labelled with europium, Alexa647 or biotin in some assays; also called 9D-TM; Alexa647-9D4-TM; copies: 2 + 2) VH: EVQLVQSGAEVKKPGESLKISCKGSGYIFTNYWIAWVRQMPGKGLESMGIIYPGDSDIRYSPSFQGQVTISADKSITTAYLQWSSLKASDTAMYYCARHDIEGFDYWGRGTLVTVSSASTKGPSVFPLAPSSKSTSGGTAALGCLVKDYFPEPVTVSWNSGALTSGVHTFPAVLQSSGLYSLSSVVTVPSSSLGTQTYICNVNHKPSNTKVDKRVEPKSCDKTHTCPPCPAPEFEGGPSVFLFPPKPKDTLMISRTPEVTCVVVDVSHEDPEVKFNWYVDGVEVHNAKTKPREEQYNSTYRVVSVLTVLHQDWLNGKEYKCKVSNKALPASIEKTISKAKGQPREPQVYTLPPSREEMTKNQVSLTCLVKGFYPSDIAVEWESNGQPENNYKTTPPVLDSDGSFFLYSKLTVDKSRWQQGNVFSCSVMHEALHNHYTQKSLSLSPGK VL: EIVLTQSPGTLSLSPGERATLSCRASQSVSSSFFAWYQQKPGQAPRLLIYGASSRATGIPDRLSGSGSGTDFTLTITRLEPEDFAVYYCQQYDSSAITFGQGTRLEIKRTVAAPSVFIFPPSDEQLKSGTASVVCLLNNFYPREAKVQWKVDNALQSGNSQESVTEQDSKDSTYSLSSTLTLSKADYEKHKVYACEVTHQGLSSPVTKSFNRGEC | 0.0212 | 0.000828 | 0.00429 | 0.261 | 0.0142 | 0.02 | 0.025 | 0.026 | 0.01 | no binding | 0.03 | IC50, PIL-5 ISRE luciferase reporter assay, neutralization of Type I interferons in SLE patient plasma [2]: 0.04 nM; IC50, inhibition of SLE plasma induced CD38 and CD123 expression on human monocytes (flow cytometry) [2]: 0.02 to 0.06 nM; IC50, luciferase reporter assay, inhibition of IFN-α1 activity [3]: 0.004 nM; IC50, luciferase reporter assay, inhibition of IFN-α2b activity [3]: 0.07 nM; IC50, luciferase reporter assay, inhibition of IFN-α4b activity [3]: 0.02 nM; IC50, luciferase reporter assay, inhibition of IFN-α6 activity [3]: 0.04 nM; IC50, luciferase reporter assay, inhibition of IFN-α7 activity [3]: 0.04 nM; IC50, luciferase reporter assay, inhibition of IFN-α8 activity [3]: 0.03 nM; IC50, luciferase reporter assay, inhibition of IFN-α10 activity [3]: 0.01 nM; IC50, luciferase reporter assay, inhibition of IFN-α14 activity [3]: 0.02 nM; IC50, luciferase reporter assay, inhibition of IFN-α16 activity [3]: 0.02 nM; IC50, luciferase reporter assay, inhibition of IFN-α17 activity [3]: 0.04 nM; IC50, luciferase reporter assay, inhibition of IFN-α21 activity [3]: 0.01 nM; IC50, luciferase reporter assay, inhibition of IFN-β1 activity [3]: 6.8 nM; IC50, luciferase reporter assay, inhibition of IFN-ω activity [3]: 0.1 nM; IC50, luciferase reporter assay, inhibition of Leukocyte Interferon activity [3]: 0.01 nM; binding result [6]: no binding (tested: 4.7 Log ng/ml (50 µg/ml by paragraph 350)); binding result [7]: no binding (tested: 4.7 Log ng/ml (50 µg/ml by paragraph 350))
human FcγRI (CD64) (receptor, UniProt P12314 16-288, looked up) QVDTTKAVITLQPPWVSVFQEETVTLHCEVLHLPGSSSTQWFLNGTATQTSTPSYRITSASVNDSGEYRCQRGLSGRSDPIQLEIHRGWLLLQVSSRVFTEGEPLALRCHAWKDKLVYNVLYYRNGKAFKFFHWNSNLTILKTNISHNGTYHCSGMGKHRYTSAGISVTVKELFPAPVLNASVTSPLLEGNLVTLSCETKLLLQRPGLQLYFSFYMGSKTLRGRNTSSEYQILTARREDSGLYWCEAATEDGNVLKRSPELELQVLGLQLPTP |  |  |  |  |  |  |  |  |  |  |  | binding result (ovalbumin [8]): no binding
anti-IFNAR1 antibody 9D4 (parental, unmodified) (antibody, V domains shown, Whole IgG with unmodified Fc; the TM variant was engineered on human IgG1 and IgG1 isotype controls were used; Biotinylated in some ELISAs; also called 9D4-WT; 9D4WT) VH: EVQLVQSGAEVKKPGESLKISCKGSGYIFTNYWIAWVRQMPGKGLESMGIIYPGDSDIRYSPSFQGQVTISADKSITTAYLQWSSLKASDTAMYYCARHDIEGFDYWGRGTLVTVSS VL: EIVLTQSPGTLSLSPGERATLSCRASQSVSSSFFAWYQQKPGQAPRLLIYGASSRATGIPDRLSGSGSGTDFTLTITRLEPEDFAVYYCQQYDSSAITFGQGTRLEIK | 0.021 | 0.00279 | 0.00834 | 0.74 | 0.0101 | 0.01 | 0.0043 | 0.02 | 0.007 | no binding | 0.06 | 
modified anti-IFNAR1 antibody 9D4-DM (Double Mutant) (antibody, human IgG4, V domains shown, Biotinylated in some ELISAs) VH: EVQLVQSGAEVKKPGESLKISCKGSGYIFTNYWIAWVRQMPGKGLESMGIIYPGDSDIRYSPSFQGQVTISADKSITTAYLQWSSLKASDTAMYYCARHDIEGFDYWGRGTLVTVSS VL: EIVLTQSPGTLSLSPGERATLSCRASQSVSSSFFAWYQQKPGQAPRLLIYGASSRATGIPDRLSGSGSGTDFTLTITRLEPEDFAVYYCQQYDSSAITFGQGTRLEIK |  |  |  |  |  | 0.01 | 0.04 | 0.02 | 0.021 |  | 0.06 | 
anti-IFNAR1 antibody 4G5 (antibody, V domains shown, Biotinylated for IHC) VH: QVQLQQWGAGLLKPSETLSLTCAVYGGSFSNYYWSWIRQPPGKGLEWIGEIILSGSTNYNPSLKSRVTISVDTSKNQFSLNLTSVTAADTAVYYCARESKWGYYFDSWGQGTLVTVSS VL: AIQLTQSPSSLSASVGDRVTITCRATQDISIALVWYQQKPGKAPELLIYDASGLGSGVPSRFSGSGSGTDFTLTISSLQPEDFATYYCQQFNSYPYTFGQGTKLEIK |  |  |  |  |  |  |  |  |  |  |  | binding result [9]: binds
